Where a chain is given by its changes, count along the chain named. Numbers in names are those of the source.
B1: 6-phosphogluconate dehydrogenase (6PGDH) (Thermotoga maritima MSB8; A11G/A447V/D294V/D82L/I120F/K27R/N387S/Q86L/R33I/T34I/T83L/Y383C) (protein)
chain: MKSHIGLIGLGVMGQNLALNIARKGYRVSVYNIIAQRTEEFVKNRVTNEEIEPHYDIESFVKSLERPRKIILMVKAGKPVDLLISLLLPHLEPGDLIIDGGNSHYMDTERRFKELSEKGFLFLGMGVSGGEYGALHGPSLMPGGSREAYNLVEEILLEIAAKTEDGPCCTYVGERSAGHFVKMVHNGIEYAIMQAIAEVYHIMRDVLSLSSEEMSSIFEEWNRGELSSFLVEITYKILRKKDEETGKPMVDVILDKAEQKGTGKWTSQAALDLGIPTPSINLAVVERVISHFKVIRTRLSKLYNKRRSATQGSEEFLRDLRNSLFFAMFMAFSQGMWLIAEASKEFGYGVSLSEVLRIWKGGCIIRAKLIDTLRRYISNENACLLESEEVMNLLKGKIDSLKNILKASIENEIPVPVLSSSYNYFMSLTEERLPANLIQAQRDFFGVHTFERVDREGVFHINWEEGEIG
B2: 6-phosphogluconate dehydrogenase (6PGDH) (Thermotoga maritima MSB8; A11G/A447V/D294V/D82L/F326S/F60Y/I120F/K118N/K27R/N387S/Q86L/R33I/T34I/T83L/Y383C) (protein)
chain: B1 chain with F60Y, K118N, F326S
B3: 6-phosphogluconate dehydrogenase (6PGDH) (Thermotoga maritima MSB8) (protein)
chain: MKSHIGLIGLAVMGQNLALNIARKGYKVSVYNRTAQRTEEFVKNRVTNEEIEPHYDIESFVKSLERPRKIILMVKAGKPVDDTISQLLPHLEPGDLIIDGGNSHYMDTERRFKELSEKGILFLGMGVSGGEYGALHGPSLMPGGSREAYNLVEEILLEIAAKTEDGPCCTYVGERSAGHFVKMVHNGIEYAIMQAIAEVYHIMRDVLSLSSEEMSSIFEEWNRGELSSFLVEITYKILRKKDEETGKPMVDVILDKAEQKGTGKWTSQAALDLGIPTPSINLAVVERVISHFKDIRTRLSKLYNKRRSATQGSEEFLRDLRNSLFFAMFMAFSQGMWLIAEASKEFGYGVSLSEVLRIWKGGCIIRAKLIDTLRRYISNENAYLLENEEVMNLLKGKIDSLKNILKASIENEIPVPVLSSSYNYFMSLTEERLPANLIQAQRDFFGAHTFERVDREGVFHINWEEGEIG
B4: 6-phosphogluconate dehydrogenase (6PGDH) (Thermotoga maritima MSB8; A11G/R33I/T34I) (protein)
chain: B3 chain with A11G, R33I, T34I
B5: 6-phosphogluconate dehydrogenase (6PGDH) (Thermotoga maritima MSB8; R33I/T34I) (protein)
chain: B3 chain with R33I, T34I
B6: 6-phosphogluconate dehydrogenase (6PGDH) (Thermotoga maritima MSB8; A11G/D82L/Q86L/R33I/T34I/T83L) (protein)
chain: B3 chain with A11G, R33I, T34I, D82L, T83L, Q86L

Tests used:
[1] = target: glucose-6-phosphate dehydrogenase (G6PDH) (Thermotoga maritima, UniProt Q9X0N9); assay: specific activity of purified enzyme; assay type: biochemical; details: co-substrate glucose 6-phosphate
[2] = substrate: NC(=O)c1ccc[n+]([C@@H]2O[C@H](COP(=O)([O-])O)[C@@H](O)[C@H]2O)c1; assay: steady-state kinetics of purified enzyme; assay type: biochemical, Thermotoga maritima; details: apparent constants; co-substrate 6-phosphogluconate; assay details in supplement
[3] = substrate: NC(=O)c1ccc[n+]([C@@H]2O[C@H](COP(=O)(O)OP(=O)(O)OC[C@H]3O[C@@H](n4cnc5c(N)ncnc54)[C@H](OP(=O)(O)O)[C@@H]3O)[C@@H](O)[C@H]2O)c1; assay: steady-state kinetics of purified enzyme; assay type: biochemical, Thermotoga maritima; details: apparent constants; co-substrate 6-phosphogluconate; assay details in supplement

Chain of glucose-6-phosphate dehydrogenase (G6PDH) (Q9X0N9 whole entry): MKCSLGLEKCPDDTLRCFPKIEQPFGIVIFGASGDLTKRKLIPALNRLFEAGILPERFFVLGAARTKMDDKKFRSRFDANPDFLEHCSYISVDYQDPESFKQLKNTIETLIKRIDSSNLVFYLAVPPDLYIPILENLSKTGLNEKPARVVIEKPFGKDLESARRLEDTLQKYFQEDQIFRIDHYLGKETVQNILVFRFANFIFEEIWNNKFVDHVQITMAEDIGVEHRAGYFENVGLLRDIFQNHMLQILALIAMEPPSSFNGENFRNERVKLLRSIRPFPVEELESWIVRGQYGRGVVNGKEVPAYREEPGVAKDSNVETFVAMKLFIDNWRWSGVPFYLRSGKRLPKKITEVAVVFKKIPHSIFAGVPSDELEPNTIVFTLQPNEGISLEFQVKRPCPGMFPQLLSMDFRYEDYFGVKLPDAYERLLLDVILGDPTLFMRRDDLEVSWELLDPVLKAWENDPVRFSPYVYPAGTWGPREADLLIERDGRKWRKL

Row | Molecule | specific activity of purified enzyme [1] | Km [2] [mM] | kcat [2] [s⁻¹] | kcat/Km [2] [M⁻¹ s⁻¹] | Km [3] [mM] | kcat [3] [s⁻¹] | kcat/Km [3] [M⁻¹ s⁻¹]
1 | NC(=O)c1ccc[n+]([C@@H]2O[C@H](COP(=O)([O-])O)[C@@H](O)[C@H]2O)c1 [NMN^+] | color intensities of colonies positively correlated with the specific activities of the purified dehydrogenases on NMN^+ | – | – | – | – | – | –
2 | B1 | – | 15.1 ± 0.6 | 18.9 ± 0.4 | 1250 | 0.22 ± 0.01 | 21.9 ± 0.2 | 101000
3 | B2 | – | 16.0 ± 1.1 | 25.8 ± 0.8 | 1620 | 0.21 ± 0.01 | 23.6 ± 0.3 | 113000
4 | B3 | – | 30.6 ± 1.7 | 1.3 ± 0.1 | 42 | 0.0012 ± 0.0001 | 15.9 ± 0.2 | 1.34e+07
5 | B4 | – | 20.7 ± 0.7 | 10.2 ± 0.2 | 490 | 2.1 ± 0.1 | 28.3 ± 0.6 | 13200
6 | B5 | – | 37.9 ± 3.6 | 1.7 ± 0.1 | 46 | 11.5 ± 1.1 | 14.8 ± 0.7 | 1300
7 | B6 | – | 27.5 ± 1.2 | 19.3 ± 0.4 | 700 | 0.39 ± 0.02 | 21.1 ± 0.3 | 53700
